According to patent US11766414B2, “Compositions, delivery systems, and methods useful in tumor therapy” (Indi Molecular, Inc., priority 2020, dated 2023):
Starred links: 1 amine or outer side, 2 acyl side, 3 side chain; linkers in the order of their positions; H or OH if unused. Positions of bridges follow the written chain, without caps; N, C: chain ends. Non-standard residues stand in square brackets, D forms with d. Residues, ends and D or L forms follow the SMILES beside them. Groups on a side chain read outwards from the residue. Triazole bridges read from a SMILES are 1,4-linked. *: point of attachment. DOTA = O=C(O)CN1CCN(CC(=O)O)CCN(CC(=O)*)CCN(CC(=O)O)CC1; Pteroyl = Nc1nc2ncc(CNc3ccc(C(=O)*)cc3)nc2c(=O)[nH]1; Biotin = O=C1N[C@H]2[C@H](CS[C@H]2CCCCC(=O)*)N1; PEG10 = NCCOCCOCCOCCOCCOCCOCCOCCOCCOCCOCCC(=O)O; Butanoyl(4-(4-MePh)) = Cc1ccc(CCCC(=O)*)cc1; Lys(N3) = [N-]=[N+]=NCCCC[C@H](N)C(=O)O; γGlu = O=C(O)[C@H](CCC(=O)[*:2])N[*:1]; AEEEA = NCCOCCOCCOCC(=O)O; Pra = C#CC[C@H](N)C(=O)O; X1 = NOCC(=O)*

How the values were obtained:
[1] = Plasma protein binding, CD-1 mouse plasma; type: in vitro ADME; settings: for fraction unbound / recovery: CD-1 mouse plasma; for fraction unbound: read-out: Plasma % Bound, Mu (converted); for recovery / recovery at 4 h, 2 μM: read-out: Plasma protein binding % Recovery, Mu; for fraction unbound at 4 h, 2 μM / recovery at 4 h, 2 μM: CD-1, mouse, plasma, AO-containing constructs, (FB); for fraction unbound at 4 h, 2 μM: read-out: Plasma % Bound, Mu
Experimental: (§1) HTD 96 a/b regenerated cellulose membrane strips with mass cutoff of 12-14 kDa were soaked in ultra-pure water at room temperature for 1 hour. Each swelled membrane was then soaked in 20:80 ethanol:water for 20 minutes.
(§2) Just prior to the experiment, the membranes were re-soaked in ultra-pure water. Plasma was prepared by thawing under cold water. The plasma was centrifuged to remove any clots and pH was adjusted to 7.0-8.0. Test articles and control compounds were diluted to 2 μM. The dialysis device was loaded by transferring 150 μL of the test article (in triplicate) to the donor side. The dialysis device was placed in a humidified incubator at 37° C. with 5% CO2 in a shaking platform that rotated slowly for 4 hours. After incubation, 50 μL of the supernatant was taken from both sides and analyzed by LC-MS/MS.

[2] = Plasma protein binding, human plasma; type: in vitro ADME; settings: for recovery / fraction unbound: human plasma; for recovery / recovery at 4 h, 2 μM: read-out: Plasma protein binding % Recovery, Hu; for fraction unbound / fraction unbound at 4 h, 2 μM / recovery at 4 h, 2 μM: human, plasma; for fraction unbound: read-out: Plasma % Bound, Hu (converted); for fraction unbound at 4 h, 2 μM / recovery at 4 h, 2 μM: AO-containing constructs, (FB); for fraction unbound at 4 h, 2 μM: read-out: Plasma % Bound, Hu
Experimental: as §1, §2

human recombinant NEP = human recombinant NEP (Homo sapiens, UniProt P08473); assay: NEP enzymatic cleavage assay (MALDI, HPLC); type: biochemical
Sequence of human recombinant NEP (P08473 whole entry): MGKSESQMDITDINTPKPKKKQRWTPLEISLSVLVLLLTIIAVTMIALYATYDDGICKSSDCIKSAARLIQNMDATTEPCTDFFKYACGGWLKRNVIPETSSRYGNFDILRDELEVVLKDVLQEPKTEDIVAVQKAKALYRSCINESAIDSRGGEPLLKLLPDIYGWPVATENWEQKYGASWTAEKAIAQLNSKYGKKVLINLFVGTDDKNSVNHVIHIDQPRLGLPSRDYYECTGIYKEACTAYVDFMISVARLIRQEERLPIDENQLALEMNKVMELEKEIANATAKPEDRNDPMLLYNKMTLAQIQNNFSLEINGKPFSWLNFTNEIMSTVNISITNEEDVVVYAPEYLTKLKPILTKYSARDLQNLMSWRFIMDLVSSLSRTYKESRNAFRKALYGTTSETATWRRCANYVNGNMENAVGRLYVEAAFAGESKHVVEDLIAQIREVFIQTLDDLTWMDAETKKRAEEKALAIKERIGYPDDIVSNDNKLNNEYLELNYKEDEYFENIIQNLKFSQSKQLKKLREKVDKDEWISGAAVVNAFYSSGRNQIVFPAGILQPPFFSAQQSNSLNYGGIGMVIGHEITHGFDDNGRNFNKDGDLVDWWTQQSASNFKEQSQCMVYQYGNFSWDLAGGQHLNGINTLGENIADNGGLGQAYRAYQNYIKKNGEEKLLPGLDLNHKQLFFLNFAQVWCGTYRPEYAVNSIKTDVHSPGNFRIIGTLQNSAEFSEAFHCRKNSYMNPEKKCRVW
Experimental: In order to test the susceptibility of GFK and MVK linkers to NEP-mediated cleavage, the peptide (Folate-hshta-Lys(MPBA)-Gly-Phe-Lys(DOTA) (SEQ ID NO:6)) was incubated with human recombinant NEP and analyzed the solution for the presence of cleaved adducts. MALDI was utilized to monitor the cleavage of a PCC heterobiligand that contains a NEP protease recognizable sequence (G-F-K). The PCC concentration was constant and the NEP concentration was titrated down from 10 nM to 1 nM, 0.1 nM, 0.01 nM, and no NEP. The NEP-mediated cleaved adduct was identified by mass. 10 μM PCC containing the GFK linker was combined with varying amounts of NEP. […] Below 0.1 nM no cleavage was observed. • Folate-hshta-Lys(MPBA)-Gly-Phe-Lys(DOTA) (SEQ ID NO:6) • Molecular weight 2231.42
The NEP-mediated cleavage was also monitored by HPLC. In agreement with the MALDI spectra, the HPLC chromatograms show depletion of the parent brush-border heterobiligand (retention time 17.1 minutes), dose-dependent on the amount of NEP spiked into the sample (10 nM, 1 nM, 0.1 nM, 0.01 nM, and no NEP). An appearance of a new peak (retention time 16.5 minutes) in concert with the depletion of the starting material is presumed to be the cleaved folate-containing peptide.
In order to test the specificity of NEP, a non-cleavable linker (PEG3) was also assayed.
To reduce the radioactive dose to the kidney, Indi ^177Lu-7327 was constructed to incorporate a GFK linker that is susceptible to cleavage by enzymes found predominately in the kidney's brush border. These enzymes cleave off the radionuclide-chelator complex, which is quickly eliminated by the kidney for excretion in the urine. The zinc metalloprotease neprilysin (NEP) is expressed with high abundance in the kidney. […] To confirm NEP-mediated cleavage of the GFK linker in Indi 7327, the peptide was incubated with recombinant human NEP at 37° C. for 1 h and analyzed by matrix-assisted laser desorption/ionization mass spectrometry (MALDI-MS) for the evolution of cleaved adducts (FIG. 42). […] The expected cleaved adduct (mass: 1283.16 m/z) appears in the samples containing 10, 1.0, and 0.1 nM NEP. […] Below 0.1 nM NEP, no cleavage was observed. In addition to confirming the selectivity of NEP for the GFK linker, it is also important to note that the remaining portions of the Indi 7327 were impervious to the enzyme.

FOLR1 = FOLR1 (Homo sapiens, UniProt P15328); assay: ELISA assay of FOLR1 binding; settings: read-out: EC50 (ELISA, FOLR1)
Sequence of FOLR1 (P15328 25-234): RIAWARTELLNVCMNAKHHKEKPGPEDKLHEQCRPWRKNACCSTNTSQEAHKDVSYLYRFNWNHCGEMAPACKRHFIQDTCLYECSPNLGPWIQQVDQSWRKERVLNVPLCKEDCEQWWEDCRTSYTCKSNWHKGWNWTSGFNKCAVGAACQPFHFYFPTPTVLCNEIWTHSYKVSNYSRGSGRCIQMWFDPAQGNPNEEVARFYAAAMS
From the text: FIG. 5 is a diagram of ELISA assay of FOLR1 binding of heterobiligands.

Structure (SMILES): C[C@H](O)[C@H]1NC(=O)[C@@H](Cc2c[nH]cn2)NC(=O)[C@@H](CO)NC(=O)[C@@H](Cc2c[nH]cn2)NC(=O)[C@@H](NC(=O)CC[C@H](NC(=O)c2ccc(NCc3cnc4nc(N)[nH]c(=O)c4n3)cc2)C(=O)O)Cc2cn(nn2)CCCC[C@@H](C(=O)NCCOCCOCCOCC(=O)N[C@@H](CCCCNC(=O)CN2CCN(CC(=O)O)CCN(CC(=O)O)CCN(CC(=O)O)CC2)C(N)=O)NC(=O)[C@@H](C)NC1=O [compound 1189, Fol-hshta-PEG3-Lys(DOTA)] ({Pteroyl-γGlu}-[Pra][dH][dS][dH][dT][dA][Lys(N3)][AEEEA]K(DOTA)-NH2; triazole 1-7)
- fraction unbound [1]: 0.705
- recovery [1]: 97.4%
- recovery [2]: 102%
- fraction unbound [2]: 0.54

Structure (SMILES): C[C@H](O)[C@H]1NC(=O)[C@@H](Cc2c[nH]cn2)NC(=O)[C@@H](CO)NC(=O)[C@@H](Cc2c[nH]cn2)NC(=O)[C@@H](NC(=O)CC[C@H](NC(=O)c2ccc(NCc3cnc4nc(N)[nH]c(=O)c4n3)cc2)C(=O)O)Cc2cn(nn2)CCCC[C@@H](C(=O)NCCOCCOCCOCC(=O)NCC(=O)N[C@@H](Cc2ccccc2)C(=O)N[C@@H](CCCCNC(=O)CN2CCN(CC(=O)O)CCN(CC(=O)O)CCN(CC(=O)O)CC2)C(=O)O)NC(=O)[C@@H](C)NC1=O [compound 6307, Fol-hshta-PEG3-Gly-Phe-Lys(DOTA)] ({Pteroyl-γGlu}-[Pra][dH][dS][dH][dT][dA][Lys(N3)][AEEEA]GFK(DOTA)-OH; triazole 1-7)
- fraction unbound [1]: 0.594
- recovery [1]: 68.9%
- recovery [2]: 81.6%
- fraction unbound [2]: 0.587
- in vitro Assay Data (NEP assay) (human recombinant NEP; Table 2): Cleavage of -G-F-K-

Structure (SMILES): C[C@H](O)[C@H]1NC(=O)[C@@H](Cc2cnc[nH]2)NC(=O)[C@@H](CO)NC(=O)[C@@H](Cc2cnc[nH]2)NC(=O)[C@@H](NC(=O)CC[C@H](NC(=O)c2ccc(NCc3cnc4nc(N)[nH]c(=O)c4n3)cc2)C(=O)O)Cc2cn(nn2)CCCC[C@@H](C(=O)NCC(=O)N[C@@H](Cc2ccccc2)C(=O)N[C@@H](CCCCNC(=O)CON)C(=O)O)NC(=O)[C@@H](C)NC1=O [compound 3303, Fol-hshta-Gly-Phe-Lys(AO)] ({Pteroyl-γGlu}-[Pra][dH][dS][dH][dT][dA][Lys(N3)]GFK(X1)-OH; triazole 1-7)
- fraction unbound at 4 h, 2 μM [1]: 0.245
- recovery at 4 h, 2 μM [1]: 77.7%
- fraction unbound at 4 h, 2 μM [2]: 0.19
- recovery at 4 h, 2 μM [2]: 80.6%
- in vitro Assay Data (NEP assay) (human recombinant NEP; Table 7, AO-containing constructs): Cleavage of —G—F—K-

Structure (SMILES): C[C@H](O)[C@H]1NC(=O)[C@@H](Cc2c[nH]cn2)NC(=O)[C@@H](CO)NC(=O)[C@@H](Cc2c[nH]cn2)NC(=O)[C@@H](NC(=O)CNC(=O)CC[C@H](NC(=O)c2ccc(NCc3cnc4nc(N)[nH]c(=O)c4n3)cc2)C(=O)O)Cc2cn(nn2)CCCC[C@@H](C(=O)NCCOCCOCCOCCOCCOCCOCCOCCOCCOCCOCCC(=O)NCCOCCOCCOCCOCCOCCOCCOCCOCCOCCOCCC(=O)N[C@@H](CCCCNC(=O)CCCC[C@@H]2SC[C@@H]3NC(=O)N[C@@H]32)C(N)=O)NC(=O)[C@@H](C)NC1=O [Folate-Gly-hshta] ({Pteroyl-γGlu}-G[Pra][dH][dS][dH][dT][dA][Lys(N3)][PEG10][PEG10]K(Biotin)-NH2; triazole 2-8)
- EC50 (FOLR1): 0.9 nM

Structure (SMILES): Cc1ccc(CCCC(=O)NCCCC[C@H](NC(=O)[C@@H]2CCCCn3cc(nn3)C[C@H](NC(=O)CC[C@H](NC(=O)c3ccc(NCc4cnc5nc(N)[nH]c(=O)c5n4)cc3)C(=O)O)C(=O)N[C@H](Cc3c[nH]cn3)C(=O)N[C@H](CO)C(=O)N[C@H](Cc3c[nH]cn3)C(=O)N[C@H]([C@H](C)O)C(=O)N[C@H](C)C(=O)N2)C(=O)NCC(=O)N[C@@H](Cc2ccccc2)C(=O)N[C@@H](CCCCNC(=O)COCCOCCOCCNC(=O)CN2CCN(CC(=O)O)CCN(CC(=O)O)CCN(CC(=O)O)CC2)C(=O)O)cc1 [compound 3302, Fol-hshta-Lys(4-MPBA)-Gly-Phe-Lys(PEG3-DOTA)] ({Pteroyl-γGlu}-[Pra][dH][dS][dH][dT][dA][Lys(N3)]K(Butanoyl(4-(4-MePh)))GFK([AEEEA-DOTA])-OH; triazole 1-7)
- fraction unbound [1]: 0.035
- recovery [1]: 103%
- recovery [2]: 88.1%
- fraction unbound [2]: 0.051
- in vitro Assay Data (NEP assay) (human recombinant NEP; Table 2): Cleavage of -G-F-K-

Structure (SMILES): C[C@H](O)[C@H]1NC(=O)[C@@H](Cc2cnc[nH]2)NC(=O)[C@@H](CO)NC(=O)[C@@H](Cc2cnc[nH]2)NC(=O)[C@@H](NC(=O)CC[C@H](NC(=O)c2ccc(NCc3cnc4nc(N)[nH]c(=O)c4n3)cc2)C(=O)O)Cc2cn(nn2)CCCC[C@@H](C(=O)NCCOCCOCCOCC(=O)N[C@@H](CCCCNC(=O)CON)C(N)=O)NC(=O)[C@@H](C)NC1=O [compound 0328, Fol-hshta-PEG3-Lys(AO)] ({Pteroyl-γGlu}-[Pra][dH][dS][dH][dT][dA][Lys(N3)][AEEEA]K(X1)-NH2; triazole 1-7)
- fraction unbound at 4 h, 2 μM [1]: 0.798
- recovery at 4 h, 2 μM [1]: 115%
- fraction unbound at 4 h, 2 μM [2]: 0.57
- recovery at 4 h, 2 μM [2]: 85%

Structure (SMILES): C[C@H](O)[C@H]1NC(=O)[C@@H](Cc2c[nH]cn2)NC(=O)[C@@H](CO)NC(=O)[C@@H](Cc2c[nH]cn2)NC(=O)[C@@H](NC(=O)[C@H]2CCCN2C(=O)CC[C@H](NC(=O)c2ccc(NCc3cnc4nc(N)[nH]c(=O)c4n3)cc2)C(=O)O)Cc2cn(nn2)CCCC[C@@H](C(=O)NCCOCCOCCOCCOCCOCCOCCOCCOCCOCCOCCC(=O)NCCOCCOCCOCCOCCOCCOCCOCCOCCOCCOCCC(=O)N[C@@H](CCCCNC(=O)CCCC[C@@H]2SC[C@@H]3NC(=O)N[C@@H]32)C(N)=O)NC(=O)[C@@H](C)NC1=O [Folate-Pro-hshta] ({Pteroyl-γGlu}-[dP][Pra][dH][dS][dH][dT][dA][Lys(N3)][PEG10][PEG10]K(Biotin)-NH2; triazole 2-8)
- EC50 (FOLR1): 0.9 nM
